Experimental data published in article PMC7610652 (Nature structural & molecular biology, 2021).

T1: RPC5, subunit of the human RNA polymerase III heterodimer (human, UniProt Q9NVU0 1-708)
T1 sequence: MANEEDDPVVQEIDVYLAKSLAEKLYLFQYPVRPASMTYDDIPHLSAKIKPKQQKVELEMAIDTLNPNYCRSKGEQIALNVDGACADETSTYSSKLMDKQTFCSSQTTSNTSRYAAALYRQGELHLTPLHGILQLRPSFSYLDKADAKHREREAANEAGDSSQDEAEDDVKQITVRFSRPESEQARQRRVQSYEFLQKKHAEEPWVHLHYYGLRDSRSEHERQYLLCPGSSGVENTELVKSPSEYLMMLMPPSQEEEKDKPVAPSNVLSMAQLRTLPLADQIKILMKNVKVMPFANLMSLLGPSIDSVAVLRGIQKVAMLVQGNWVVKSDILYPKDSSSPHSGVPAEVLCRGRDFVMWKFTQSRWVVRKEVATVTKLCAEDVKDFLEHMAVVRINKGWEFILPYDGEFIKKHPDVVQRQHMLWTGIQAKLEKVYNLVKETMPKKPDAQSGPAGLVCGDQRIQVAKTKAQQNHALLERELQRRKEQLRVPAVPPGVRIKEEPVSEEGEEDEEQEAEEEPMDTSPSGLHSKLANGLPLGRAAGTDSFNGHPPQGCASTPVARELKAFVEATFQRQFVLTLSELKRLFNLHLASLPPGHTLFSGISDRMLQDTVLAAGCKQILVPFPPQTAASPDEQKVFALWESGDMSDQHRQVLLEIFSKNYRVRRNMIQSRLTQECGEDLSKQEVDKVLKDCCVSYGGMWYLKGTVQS

T2: RPC1, subunit of human RNA polymerase III (human, UniProt O14802 1-1390)
T2 sequence: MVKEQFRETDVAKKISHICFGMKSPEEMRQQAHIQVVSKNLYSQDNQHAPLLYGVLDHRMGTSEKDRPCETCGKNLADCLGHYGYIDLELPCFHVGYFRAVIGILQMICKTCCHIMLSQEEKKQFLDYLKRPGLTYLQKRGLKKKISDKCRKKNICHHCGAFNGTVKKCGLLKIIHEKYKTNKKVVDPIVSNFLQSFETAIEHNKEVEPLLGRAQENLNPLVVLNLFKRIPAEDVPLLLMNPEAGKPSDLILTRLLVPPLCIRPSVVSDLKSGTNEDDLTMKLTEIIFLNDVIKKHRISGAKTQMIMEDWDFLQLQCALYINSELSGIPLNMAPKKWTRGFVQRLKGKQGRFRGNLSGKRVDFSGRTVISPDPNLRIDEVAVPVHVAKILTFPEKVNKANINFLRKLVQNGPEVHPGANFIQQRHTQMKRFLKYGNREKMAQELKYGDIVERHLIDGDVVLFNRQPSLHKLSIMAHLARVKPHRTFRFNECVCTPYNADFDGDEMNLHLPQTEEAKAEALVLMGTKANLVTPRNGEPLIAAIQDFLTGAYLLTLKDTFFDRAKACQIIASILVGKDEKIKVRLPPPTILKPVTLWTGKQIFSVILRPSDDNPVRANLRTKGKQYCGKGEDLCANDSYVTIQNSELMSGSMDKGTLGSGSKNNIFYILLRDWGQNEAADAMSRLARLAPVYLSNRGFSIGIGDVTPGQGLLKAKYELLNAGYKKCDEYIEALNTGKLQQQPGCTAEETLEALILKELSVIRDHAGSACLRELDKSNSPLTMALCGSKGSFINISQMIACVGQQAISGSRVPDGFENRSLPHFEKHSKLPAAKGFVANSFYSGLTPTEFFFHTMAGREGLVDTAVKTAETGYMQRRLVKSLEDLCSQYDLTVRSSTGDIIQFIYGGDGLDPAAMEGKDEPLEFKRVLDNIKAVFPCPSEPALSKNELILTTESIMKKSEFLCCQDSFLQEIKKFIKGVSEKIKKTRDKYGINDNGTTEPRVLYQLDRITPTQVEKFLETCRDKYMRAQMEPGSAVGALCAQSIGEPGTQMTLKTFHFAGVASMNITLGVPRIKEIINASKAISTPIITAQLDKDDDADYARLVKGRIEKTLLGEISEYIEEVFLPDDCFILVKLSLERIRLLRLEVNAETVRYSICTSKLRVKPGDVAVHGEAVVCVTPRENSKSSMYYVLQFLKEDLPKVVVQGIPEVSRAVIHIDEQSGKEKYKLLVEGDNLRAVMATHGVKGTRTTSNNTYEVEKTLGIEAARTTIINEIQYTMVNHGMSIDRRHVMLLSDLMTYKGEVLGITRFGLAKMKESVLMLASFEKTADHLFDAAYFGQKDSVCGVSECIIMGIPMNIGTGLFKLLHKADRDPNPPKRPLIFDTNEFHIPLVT

T3: RPC3, subunit of the human RNA polymerase III heterotrimer (human, UniProt Q9BUI4 1-534)
T3 sequence: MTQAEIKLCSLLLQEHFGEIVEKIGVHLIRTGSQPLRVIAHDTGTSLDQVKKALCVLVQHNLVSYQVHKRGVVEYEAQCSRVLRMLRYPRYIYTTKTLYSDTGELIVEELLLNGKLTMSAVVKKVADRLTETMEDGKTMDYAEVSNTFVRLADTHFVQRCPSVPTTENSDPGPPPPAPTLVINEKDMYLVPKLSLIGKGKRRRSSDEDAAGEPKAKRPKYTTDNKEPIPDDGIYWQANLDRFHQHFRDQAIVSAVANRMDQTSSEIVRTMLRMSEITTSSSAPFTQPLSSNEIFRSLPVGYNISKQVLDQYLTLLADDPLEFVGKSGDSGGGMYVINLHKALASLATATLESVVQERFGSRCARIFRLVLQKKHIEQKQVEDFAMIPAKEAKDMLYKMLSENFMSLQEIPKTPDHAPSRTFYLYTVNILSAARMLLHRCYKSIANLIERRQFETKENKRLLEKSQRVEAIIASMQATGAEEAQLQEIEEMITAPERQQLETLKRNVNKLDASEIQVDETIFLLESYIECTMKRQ

B1: RPC8, stalk subunit of human RNA polymerase III (natural protein)
chain: MFVLVEMVDTVRIPPWQFERKLNDSIAEELNKKLANKVVYNVGLCICLFDITKLEDAYVFPGDGASHTKVHFRCVVFHPFLDEILIGKIKGCSPEGVHVSLGFFDDILIPPESLQQPAKFDEAEQVWVWEYETEEGAHDLYMDTGEEIRFRVVDESFVDTSPTGPSSADATTSSEELPKKEAPYTLVGSISEPGLGLLSWWTSN
B2: RPC4, subunit of the human RNA polymerase III heterodimer (natural protein)
chain: MSEGNAAGEPSTPGGPRPLLTGARGLIGRRPAPPLTPGRLPSIRSRDLTLGGVKKKTFTPNIISRKIKEEPKEEVTVKKEKRERDRDRQREGHGRGRGRPEVIQSHSIFEQGPAEMMKKKGNWDKTVDVSDMGPSHIINIKKEKRETDEETKQILRMLEKDDFLDDPGLRNDTRNMPVQLPLAHSGWLFKEENDEPDVKPWLAGPKEEDMEVDIPAVKVKEEPRDEEEEAKMKAPPKAARKTPGLPKDVSVAELLRELSLTKEEELLFLQLPDTLPGQPPTQDIKPIKTEVQGEDGQVVLIKQEKDREAKLAENACTLADLTEGQVGKLLIRKSGRVQLLLGKVTLDVTMGTACSFLQELVSVGLGDSRTGEMTVLGHVKHKLVCSPDFESLLDHKHR
B3: RPC6, subunit of the human RNA polymerase III heterotrimer (natural protein)
chain: MAEVKVKVQPPDADPVEIENRIIELCHQFPHGITDQVIQNEMPHIEAQQRAVAINRLLSMGQLDLLRSNTGLLYRIKDSQNAGKMKGSDNQEKLVYQIIEDAGNKGIWSRDIRYKSNLPLTEINKILKNLESKKLIKAVKSVAASKKKVYMLYNLQPDRSVTGGAWYSDQDFESEFVEVLNQQCFKFLQSKAETARESKQNPMIQRNSSFASSHEVWKYICELGISKVELSMEDIETILNTLIYDGKVEMTIIAAKEGTVGSVDGHMKLYRAVNPIIPPTGLVRAPCGLCPVFDDCHEGGEISPSNCIYMTEWLEF
B4: RPC7α, subunit of the human RNA polymerase III heterotrimer (natural protein)
chain: MAGNKGRGRAAYTFNIEAVGFSKGEKLPDVVLKPPPLFPDTDYKPVPLKTGEGEEYMLALKQELRETMKRMPYFIETPEERQDIERYSKRYMKVYKEEWIPDWRRLPREMMPRNKCKKAGPKPKKAKDAGKGTPLTNTEDVLKKMEELEKRGDGEKSDEENEEKEGSKEKSKEGDDDDDDDAAEQEEYDEEEQEEENDYINSYFEDGDDFGADSDDNMDEATY
B5: RPC10, TFIIS-like subunit of human RNA polymerase III (natural protein)
chain: not shown

Columns and labels:
Experiment in all cases: cryo-EM structure
[1] = target: B4
[2] = target: T1, RPC5, subunit of the human RNA …
[3] = target: T2, RPC1, subunit of human RNA polymerase …
[4] = target: T3, RPC3, subunit of the human RNA …
[5] = target: B2

Binder	binding result [1]	binding result [2]	binding result [3]	binding result [4]	binding result [5]
B1	binds	–	–	–	–
B2	–	binds	binds	–	–
B3	–	–	binds	binds	–
B4	–	–	binds	binds	–
B5	–	binds	binds	–	binds
